This is an account of results in patent publication US20250290123.

Like-named read-outs stand apart in the source and are kept apart here.

Data set [1] relates to LigAT_C-RNAseH-Ecoli (ATCV-1 ligase fused at C-terminus to inactive E. coli RNase H) (Acanthocystis turfacea chlorella virus 1 / Escherichia coli). The following applies: CE ligation assay.
The test system of data set [2] is LigAT-HU (control ligase). The following applies: CE ligation assay, control buffer, 2 h 37 C.
Data set [3] concerns LigAT_C-RNAseH-Sto (Acanthocystis turfacea chlorella virus 1 / Sulfolobus tokodaii). The following applies: 5'-phosphate; Buffer 2B, 37-55 C, 2 h.
Data set [4] concerns LigAT_C-RNAseH-Ecoli (ATCV-1 ligase fused at C-terminus to inactive E. coli RNase H) (Acanthocystis turfacea chlorella virus 1 / Escherichia coli). The settings on record: 5'-phosphate; Buffer 1B, 37-55 C, 2 h, 1 uM ligase.
The subject of data set [5] is LigAT-HU (control ligase). The following applies: 5'-phosphate; control buffer 37 C; less than 5% at 55 C.

For CT junction template and substrates, in data set [1], the activity (% ligation yield) stood at 43.

In data set [1], AC junction template and substrates returned an activity (% ligation yield) of 36.

Substance TG junction template and substrates came in with an activity (% ligation yield) in data set [1] of 40.

For “AA junction RNA template with DNA substrates A and pA”, in data set [1] (5'-phosphate on SEQ 43, matched junction), the activity (% ligation yield) was 37.

In the case of CG junction template and substrates, the activity (% ligation yield) is 17 in data set [1] and below 10 in data set [2].

With CC junction template and substrates, the activity (% ligation yield) was 33 in data set [1] and below 10 in data set [2].

Substance TA junction template and substrates returned an activity (% ligation yield) in data set [1] of 45.

As to CA junction template and substrates, the activity (% ligation yield) in data set [1] worked out at 39.

Take GG junction template and substrates: the activity (% ligation yield) in data set [1] is 27; in data set [2] it was below 10.

Take AG junction template and substrates: the figures for the activity (% ligation yield) in data set [1] and in data set [2] were 23 and below 10, respectively.

With GA junction template and substrates, in data set [1], the activity (% ligation yield) amounted to 48.

Substance TC junction template and substrates yielded an activity (% ligation yield) in data set [1] of 49.

As for “DNA padlock probes annealed to RNA template”, the activity (% ligated product) in data set [3] is above 75; in data set [4], above 75; in data set [5] it was 25.

Take AT junction template and substrates: in data set [1], the activity (% ligation yield) was determined as 37.

TT junction template and substrates yielded an activity (% ligation yield) in data set [1] of 50.

On to GC junction template and substrates, for which the values for the activity (% ligation yield) in data set [1] and in data set [2] were 35 and below 10, respectively.

The substance GT junction template and substrates showed an activity (% ligation yield) in data set [1] of 47.
